Test results taken from patent publication US20260132182A1 (published 2026).
Starred links: 1 amine or outer side, 2 acyl side, 3 side chain; linkers in the order of their positions; H or OH if unused. Non-standard residues stand in square brackets, D forms with d. Groups on a side chain read outwards from the residue. *: point of attachment. Hexadecanoyl(16-SO3H) = O=C(CCCCCCCCCCCCCCCS(=O)(=O)O)*; C20 diacid = O=C(O)CCCCCCCCCCCCCCCCCCC(=O)*; C18 diacid = O=C(O)CCCCCCCCCCCCCCCCC(=O)*; C16 diacid = O=C(O)CCCCCCCCCCCCCCC(=O)*; γGlu = O=C(O)[C@H](CCC(=O)[*:2])N[*:1]; εLys = N[C@@H](CCCCN[*:1])C(=O)[*:2]; Trx = NC[C@H]1CC[C@H](C(=O)O)CC1; AEEA = NCCOCCOCC(=O)O; Aib = CC(C)(N)C(=O)O; Ahx = NCCCCCC(=O)O

T1: human amylin-3 (a) receptor (human, UniProt P30988 25-474; O60896 24-148)
T1 sequence (looked up) 1: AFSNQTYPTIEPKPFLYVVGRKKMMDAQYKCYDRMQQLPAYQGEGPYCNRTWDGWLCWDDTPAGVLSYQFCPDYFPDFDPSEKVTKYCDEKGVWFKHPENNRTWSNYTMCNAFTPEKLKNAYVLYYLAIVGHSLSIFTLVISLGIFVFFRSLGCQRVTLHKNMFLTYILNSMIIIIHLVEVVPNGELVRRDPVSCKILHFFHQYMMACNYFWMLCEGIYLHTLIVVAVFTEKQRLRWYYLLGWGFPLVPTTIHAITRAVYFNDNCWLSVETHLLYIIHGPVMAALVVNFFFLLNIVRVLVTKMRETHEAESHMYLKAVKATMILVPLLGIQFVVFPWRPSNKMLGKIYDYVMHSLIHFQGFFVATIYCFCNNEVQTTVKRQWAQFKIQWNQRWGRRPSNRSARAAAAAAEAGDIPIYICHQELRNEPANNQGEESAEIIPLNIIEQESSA
T1 sequence (looked up) 2: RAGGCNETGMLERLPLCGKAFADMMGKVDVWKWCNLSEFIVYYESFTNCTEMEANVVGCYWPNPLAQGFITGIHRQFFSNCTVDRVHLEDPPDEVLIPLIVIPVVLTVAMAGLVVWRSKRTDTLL


Legend:
human GLP-1 receptor = human GLP-1 receptor (human, UniProt P43220 24-463); test: cell-based or functional assay
[1] = target: T1, human amylin-3 (a) receptor; test: cell-based or functional assay

Binder	Human GLP-1R potency [EC50 (pM)] (human GLP-1 receptor) [pM]	Human AmyR3 potency [EC50 (pM)] [1] [pM]
Compound 0089 (peptide) peptide: H[Aib]EGTFTSDVSSYLEEQAARK([AEEA-AEEA-γGlu-C18 diacid])FIEWLVRGK([AEEA-AEEA-γGlu-C18 diacid])GEGGEASELSTAALGRLSAELHELATLPRTETGSGSP-NH2	5.7	65.5
Compound 0083 (peptide) peptide: H[Aib]EGTFTSDVSSYLEGQAAREFIAWLVRGRK([AEEA-AEEA-γGlu-C18 diacid])GQEPGQAPEASELSTAALGRLSAELHELATLPRTETGSGSP-NH2	5.4	46.2
Compound 0656 (peptide) peptide: H[Aib]EGTFTSDVSSYLEEQAAREFIAWLVRGRK([εLys-εLys-γGlu-C18 diacid])GGGGEASELSTAALGRLSAELHELATLPRTETGSGSP-NH2	4.1	13.3
Compound 0075 (peptide) peptide: H[Aib]EGTFTSDVSSYLEGQAAK([AEEA-AEEA-γGlu-C16 diacid])EFIAWLVRGK([AEEA-AEEA-γGlu-C16 diacid])GGGEASELSTAALGRLSAELHELATLPRTETGSGSP-NH2	84.5	43.9
Compound 0660 (peptide) peptide: H[Aib]EGTFTSDVSSYLEEQAAREFIAWLVRGRK([AEEA-γGlu-C18 diacid])GGGGEASELSTAALGRLSAELHELATLPRTETGSGSP-NH2	3.9	12.7
Compound 0010 (peptide) peptide: H[Aib]EGTFTSDVSSYLEGQAAREFIAWLVRGRGEGEGEK([AEEA-AEEA-γGlu-C18 diacid])EASELSTAALGRLSAELHELATLPRTETGSGSP-NH2	5.4	37
Compound 0074 (peptide) peptide: H[Aib]EGTFTSDVSSYLEEQAARK([AEEA-AEEA-γGlu-C16 diacid])FIAWLVRGRGGK([AEEA-AEEA-γGlu-C16 diacid])EASELSTAALGRLSAELHELATLPRTETGSGSP-NH2	0.8	60.9
Compound 0661 (peptide) peptide: H[Aib]EGTFTSDVSSYLEEQAAREFIAWLVRGRK([AEEA-AEEA-AEEA-γGlu-C18 diacid])GGGGEASELSTAALGRLSAELHELATLPRTETGSGSP-NH2	2.8	14.4
Compound 0093 (peptide) peptide: H[Aib]EGTFTSDVSSYLEGQAAK([AEEA-AEEA-γGlu-C18 diacid])EFIAWLVRGRGGGGGGGGGGGGGGGGGEASELSTAALGRLSAELHELATLPRTETGSGSP-NH2	7.5	8.6
Compound 0092 (peptide) peptide: H[Aib]EGTFTSDVSSYLEGQAAK([AEEA-AEEA-γGlu-C18 diacid])EFIAWLVRGRGGGGGGGGGGGGGEASELSTAALGRLSAELHELATLPRTETGSGSP-NH2	18.5	10.9
Compound 0085 (peptide) peptide: H[Aib]EGTFTSDVSSYLEGQAAREFIAWLVRGRGQEPGQAPK([AEEA-AEEA-γGlu-C18 diacid])EASELSTAALGRLSAELHELATLPRTETGSGSP-NH2	2.2	55.8
Compound 0658 (peptide) peptide: H[Aib]EGTFTSDVSSYLEEQAAREFIAWLVRGRK([Ahx-Ahx-γGlu-C18 diacid])GGGGEASELSTAALGRLSAELHELATLPRTETGSGSP-NH2	3.1	11
Compound 0095 (peptide) peptide: H[Aib]EGTFTSDVSSYLEGQAAK([AEEA-AEEA-γGlu-Trx-C20 diacid])EFIAWLVRGRGGGGGGGGGEASELSTAALGRLSAELHELATLPRTETGSGSP-NH2	7.4	6.6
Compound 0087 (peptide) peptide: HGEGTFTSDVSSYLEEQAARK([AEEA-AEEA-γGlu-C16 diacid])FIEWLVRGK([AEEA-AEEA-γGlu-C16 diacid])GEGGEASELSTAALGRLSAELHELATLPRTETGSGSP-NH2	23.8	97.9
Compound 0655 (peptide) peptide: H[Aib]EGTFTSDVSSYLEEQAAREFIAWLVRGRK([AEEA-AEEA-γGlu-17‑(1H-tetrazol-5-yl)heptadecanoyl])GGGGEASELSTAALGRLSAELHELATLPRTETGSGSP-NH2	3	11.4
Compound 0654 (peptide) peptide: H[Aib]EGTFTSDVSSYLEEQAAREFIAWLVRGRK([AEEA-AEEA-γGlu-Hexadecanoyl(16-SO3H)])GGGGEASELSTAALGRLSAELHELATLPRTETGSGSP-NH2	2.9	11.3
Compound 0648 (peptide) peptide: HWEGTFTSDVSSYLEEQAAREFIAWLVRGRK([AEEA-AEEA-γGlu-C18 diacid])GGGGEASELSTAALGRLSAELHELATLPRTETGSGSP-NH2	17	9.2
Compound 0076 (peptide) peptide: H[Aib]EGTFTSDVSSYLEEQAARK([AEEA-AEEA-γGlu-C16 diacid])FIAWLVRGK([AEEA-AEEA-γGlu-C16 diacid])GGGEASELSTAALGRLSAELHELATLPRTETGSGSP-NH2	1.7	46.4
Compound 0657 (peptide) peptide: H[Aib]EGTFTSDVSSYLEEQAAREFIAWLVRGRK([εLys-εLys-γGlu-C20 diacid])GGGGEASELSTAALGRLSAELHELATLPRTETGSGSP-NH2	9.9	10.4
Compound 0659 (peptide) peptide: H[Aib]EGTFTSDVSSYLEEQAAREFIAWLVRGRK([Ahx-Ahx-γGlu-C20 diacid])GGGGEASELSTAALGRLSAELHELATLPRTETGSGSP-NH2	4.7	11.5
Compound 0086 (peptide) peptide: H[Aib]EGTFTSDVSSYLEEQAARK([AEEA-AEEA-γGlu-C16 diacid])FIEWLVRGK([AEEA-AEEA-γGlu-C16 diacid])GEGGEASELSTAALGRLSAELHELATLPRTETGSGSP-NH2	3.9	78.3
Compound 0077 (peptide) peptide: H[Aib]EGTFTSDVSSYLEEQAARK([AEEA-AEEA-γGlu-C16 diacid])FIAWLVK([AEEA-AEEA-γGlu-C16 diacid])GRGGGEASELSTAALGRLSAELHELATLPRTETGSGSP-NH2	2.1	25.7
Compound 0663 (peptide) peptide: H[Aib]EGTFTSDVSSYLEEQAAREFIAWLVRGRK([AEEA-AEEA-AEEA-AEEA-γGlu-C20 diacid])GGGGEASELSTAALGRLSAELHELATLPRTETGSGSP-NH2	3.2	12.6
Compound 0094 (peptide) peptide: H[Aib]EGTFTSDVSSYLEGQAAK([AEEA-AEEA-γGlu-C20 diacid])EFIAWLVRGRGGGGGGGGGEASELSTAALGRLSAELHELATLPRTETGSGSP-NH2	7.5	11.3
Compound 0084 (peptide) peptide: H[Aib]EGTFTSDVSSYLEGQAAREFIAWLVRGRGQEPK([AEEA-AEEA-γGlu-C18 diacid])GQAPEASELSTAALGRLSAELHELATLPRTETGSGSP-NH2	2.5	14
Compound 0090 (peptide) peptide: HGEGTFTSDVSSYLEEQAARK([AEEA-AEEA-γGlu-C18 diacid])FIEWLVRGK([AEEA-AEEA-γGlu-C18 diacid])GEGGEASELSTAALGRLSAELHELATLPRTETGSGSP-NH2	32.6	70.9
Compound 0662 (peptide) peptide: H[Aib]EGTFTSDVSSYLEEQAAREFIAWLVRGRK([AEEA-AEEA-AEEA-AEEA-γGlu-C18 diacid])GGGGEASELSTAALGRLSAELHELATLPRTETGSGSP-NH2	3	14.6
